Test results as given in IntAct's records for PubMed 31515488.

B1: Cell division cycle 7-related protein kinase (Homo sapiens), O00311 (parent)
chain: MEASLGIQMDEPMAFSPQRDRFQAEGSLKKNEQNFKLAGVKKDIEKLYEAVPQLSNVFKIEDKIGEGTFSSVYLATAQLQVGPEEKIALKHLIPTSHPIRIAAELQCLTVAGGQDNVMGVKYCFRKNDHVVIAMPYLEHESFLDILNSLSFQEVREYMLNLFKALKRIHQFGIVHRDVKPSNFLYNRRLKKYALVDFGLAQGTHDTKIELLKFVQSEAQQERCSQNKSHIITGNKIPLSGPVPKELDQQSTTKASVKRPYTNAQIQIKQGKDGKEGSVGLSVQRSVFGERNFNIHSSISHESPAVKLMKQSKTVDVLSRKLATKKKAISTKVMNSAVMRKTASSCPASLTCDCYATDKVCSICLSRRQQVAPRAGTPGFRAPEVLTKCPNQTTAIDMWSAGVIFLSLLSGRYPFYKASDDLTALAQIMTIRGSRETIQAAKTFGKSILCSKEVPAQDLRKLCERLRGMDSSTPKLTSDIQGHASHQPAISEKTDHKASCLVQTPPGQYSGNSFKKGDSNSCEHCFDEYNTNLEGWNEVPDEAYDLLDKLLDLNPASRITAEEALLHPFFKDMSL
partner: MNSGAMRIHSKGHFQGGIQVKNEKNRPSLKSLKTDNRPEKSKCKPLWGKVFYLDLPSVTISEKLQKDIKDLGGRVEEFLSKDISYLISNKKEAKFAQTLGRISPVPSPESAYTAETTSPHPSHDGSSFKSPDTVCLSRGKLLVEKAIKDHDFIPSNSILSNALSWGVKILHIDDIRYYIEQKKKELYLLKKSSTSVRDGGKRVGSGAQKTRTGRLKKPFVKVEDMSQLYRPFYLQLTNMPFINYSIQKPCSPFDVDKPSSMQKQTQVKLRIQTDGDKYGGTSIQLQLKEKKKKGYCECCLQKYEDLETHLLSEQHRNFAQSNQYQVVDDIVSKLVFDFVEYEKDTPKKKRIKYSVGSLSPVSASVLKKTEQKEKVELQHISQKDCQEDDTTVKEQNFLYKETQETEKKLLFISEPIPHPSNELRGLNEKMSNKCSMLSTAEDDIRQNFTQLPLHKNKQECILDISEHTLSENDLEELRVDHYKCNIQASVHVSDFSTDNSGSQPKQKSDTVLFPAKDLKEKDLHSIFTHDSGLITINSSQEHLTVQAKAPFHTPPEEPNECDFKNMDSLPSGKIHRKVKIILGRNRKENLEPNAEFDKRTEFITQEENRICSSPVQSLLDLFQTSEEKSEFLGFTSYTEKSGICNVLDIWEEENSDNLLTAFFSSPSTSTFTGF
B2: Microtubule-associated tumor suppressor candidate 2 (Homo sapiens), Q5JR59-3 (parent)
chain: MGHCCCKPYNCLQCLDKTNESALVKEKELSIELANIRDEVAFHTAKCEKLQKEKEELERRFEDEVKRLGWQQQAELQELEERLQLQFEAEMARLQEEHGDQLLSIRCQHQEQVEDLTASHDAALLEMENNHTVAITILQDDHDHKVQELMSTHELEKKELEENFEKLRLSLQDQVDTLTFQSQSLRDRARRFEEALRKNTEEQLEIALAPYQHLEEDMKSLKQVLEMKNQQIHEQEKKILELEKLAEKNIILEEKIQVLQQQNEDLKARIDQNTVVTRQLSEENANLQEYVEKETQEKKRLSRTNEELLWKLQTGDPTSPIKLSPTSPVYRGSSSGPSSPARVSTTPR
B3: Four and a half LIM domains protein 2 (Homo sapiens), Q14192 (parent)
chain: MTERFDCHHCNESLFGKKYILREESPYCVVCFETLFANTCEECGKPIGCDCKDLSYKDRHWHEACFHCSQCRNSLVDKPFAAKEDQLLCTDCYSNEYSSKCQECKKTIMPGTRKMEYKGSSWHETCFICHRCQQPIGTKSFIPKDNQNFCVPCYEKQHAMQCVQCKKPITTGGVTYREQPWHKECFVCTACRKQLSGQRFTARDDFAYCLNCFCDLYAKKCAGCTNPISGLGGTKYISFEERQWHNDCFNCKKCSLSLVGRGFLTERDDILCPDCGKDI
partner: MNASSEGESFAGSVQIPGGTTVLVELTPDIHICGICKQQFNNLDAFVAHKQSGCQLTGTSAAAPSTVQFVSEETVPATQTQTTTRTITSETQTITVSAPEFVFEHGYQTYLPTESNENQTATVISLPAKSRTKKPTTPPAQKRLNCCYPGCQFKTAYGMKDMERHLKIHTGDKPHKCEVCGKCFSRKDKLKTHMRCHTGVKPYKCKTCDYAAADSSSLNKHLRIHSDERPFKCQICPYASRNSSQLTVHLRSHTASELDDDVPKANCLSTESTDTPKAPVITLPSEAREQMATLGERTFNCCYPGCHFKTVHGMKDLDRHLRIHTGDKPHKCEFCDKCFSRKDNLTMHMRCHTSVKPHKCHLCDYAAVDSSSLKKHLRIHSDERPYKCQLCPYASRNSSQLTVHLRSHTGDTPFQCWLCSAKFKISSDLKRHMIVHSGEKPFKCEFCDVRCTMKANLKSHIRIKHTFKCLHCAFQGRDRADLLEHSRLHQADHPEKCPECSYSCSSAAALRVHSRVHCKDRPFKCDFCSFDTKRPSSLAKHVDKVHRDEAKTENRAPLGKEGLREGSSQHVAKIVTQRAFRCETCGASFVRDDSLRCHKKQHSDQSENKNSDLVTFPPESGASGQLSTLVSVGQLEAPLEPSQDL
B4: Placental protein 13-like (Homo sapiens), Q8TCE9 (parent)
chain: MSSLPVPYTLPVSLPVGSCVIITGTPILTFVKDPQLEVNFYTGMDEDSDIAFQFRLHFGHPAIMNSCVFGIWRYEEKCYYLPFEDGKPFELCIYVRHKEYKVMVNGQRIYNFAHRFPPASVKMLQVFRDISLTRVLISD
B5: Pachytene checkpoint protein 2 homolog (Homo sapiens), Q15645 (parent)
chain: MDEAVGDLKQALPCVAESPTVHVEVHQRGSSTAKKEDINLSVRKLLNRHNIVFGDYTWTEFDEPFLTRNVQSVSIIDTELKVKDSQPIDLSACTVALHIFQLNEDGPSSENLEEETENIIAANHWVLPAAEFHGLWDSLVYDVEVKSHLLDYVMTTLLFSDKNVNSNLITWNRVVLLHGPPGTGKTSLCKALAQKLTIRLSSRYRYGQLIEINSHSLFSKWFSESGKLVTKMFQKIQDLIDDKDALVFVLIDEVESLTAARNACRAGTEPSDAIRVVNAVLTQIDQIKRHSNVVILTTSNITEKIDVAFVDRADIKQYIGPPSAAAIFKIYLSCLEELMKCQIIYPRQQLLTLRELEMIGFIENNVSKLSLLLNDISRKSEGLSGRVLRKLPFLAHALYVQAPTVTIEGFLQALSLAVDKQFEERKKLAAYI
partner: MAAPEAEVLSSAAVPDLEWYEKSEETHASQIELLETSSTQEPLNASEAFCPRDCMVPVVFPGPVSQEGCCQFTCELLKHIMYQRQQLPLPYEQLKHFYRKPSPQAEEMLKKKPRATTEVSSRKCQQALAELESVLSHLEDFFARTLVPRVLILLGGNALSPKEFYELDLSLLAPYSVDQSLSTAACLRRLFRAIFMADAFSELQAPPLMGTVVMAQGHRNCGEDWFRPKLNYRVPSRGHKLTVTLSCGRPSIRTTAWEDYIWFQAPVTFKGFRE

Variants of: B1
Conditions: with dbf4a_human DBF4, Q9UBU7

Variant	effect of a mutation on the interaction
Q456H	with no effect
I99L	with no effect
I99T	with no effect

Continued, values first:

effect of a mutation on the interaction	Variant
with no effect	K416T
with no effect	Q106R

Variants of: B2
Conditions: with catz_human CTSZ

Variant	effect of a mutation on the interaction
A89V	with no effect

Variants of: B2
Conditions: with zn136_human ZNF136, P52737
Sequence of zn136_human ZNF136, P52737 (P52737 whole entry): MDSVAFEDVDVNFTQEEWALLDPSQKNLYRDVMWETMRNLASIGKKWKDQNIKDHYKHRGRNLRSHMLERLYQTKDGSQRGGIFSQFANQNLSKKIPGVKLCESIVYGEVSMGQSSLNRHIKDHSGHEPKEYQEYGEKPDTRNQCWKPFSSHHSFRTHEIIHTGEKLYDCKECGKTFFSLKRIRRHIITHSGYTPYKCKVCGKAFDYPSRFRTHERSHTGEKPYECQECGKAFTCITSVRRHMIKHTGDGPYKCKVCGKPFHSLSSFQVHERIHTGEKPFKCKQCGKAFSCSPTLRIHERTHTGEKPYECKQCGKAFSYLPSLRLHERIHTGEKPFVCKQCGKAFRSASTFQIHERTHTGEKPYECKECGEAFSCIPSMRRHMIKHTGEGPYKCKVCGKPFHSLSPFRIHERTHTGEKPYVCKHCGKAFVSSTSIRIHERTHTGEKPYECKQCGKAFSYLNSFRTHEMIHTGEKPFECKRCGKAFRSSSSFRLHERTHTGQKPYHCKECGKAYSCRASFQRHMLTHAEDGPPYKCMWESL

Variant	effect of a mutation on the interaction
A89V	with no effect

Variants of: B2
Conditions: with TSGA10IP

Variant	effect of a mutation on the interaction
A89V	with no effect

Variants of: B2
Conditions: with kat5_human KAT5, Q92993
Sequence of kat5_human KAT5, Q92993 (Q92993 whole entry, looked up): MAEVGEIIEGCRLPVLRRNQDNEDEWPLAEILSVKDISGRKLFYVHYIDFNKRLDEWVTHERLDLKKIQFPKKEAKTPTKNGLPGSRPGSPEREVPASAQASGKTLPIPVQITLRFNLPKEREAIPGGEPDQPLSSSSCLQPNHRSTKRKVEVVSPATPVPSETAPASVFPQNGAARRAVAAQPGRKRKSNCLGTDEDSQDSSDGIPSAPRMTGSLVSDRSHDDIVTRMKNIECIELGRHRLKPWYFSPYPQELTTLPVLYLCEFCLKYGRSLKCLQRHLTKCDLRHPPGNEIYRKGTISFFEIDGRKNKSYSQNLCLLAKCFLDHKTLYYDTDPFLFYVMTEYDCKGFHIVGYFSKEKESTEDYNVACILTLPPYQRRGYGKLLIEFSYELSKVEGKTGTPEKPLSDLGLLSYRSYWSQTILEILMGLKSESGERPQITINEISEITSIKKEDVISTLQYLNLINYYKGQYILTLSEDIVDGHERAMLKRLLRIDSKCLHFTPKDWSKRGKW

Variant	effect of a mutation on the interaction
A89V	with no effect

Variants of: B2
Conditions: with cd5r1_human CDK5R1, Q15078
Sequence of cd5r1_human CDK5R1, Q15078 (Q15078 whole entry): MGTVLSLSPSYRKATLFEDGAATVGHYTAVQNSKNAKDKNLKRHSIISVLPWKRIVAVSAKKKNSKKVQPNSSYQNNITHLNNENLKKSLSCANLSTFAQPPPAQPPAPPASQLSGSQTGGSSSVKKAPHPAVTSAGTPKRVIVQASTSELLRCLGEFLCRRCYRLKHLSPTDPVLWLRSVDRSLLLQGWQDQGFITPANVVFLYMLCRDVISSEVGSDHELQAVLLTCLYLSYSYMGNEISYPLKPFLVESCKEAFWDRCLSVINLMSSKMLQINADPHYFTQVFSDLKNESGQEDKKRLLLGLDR

Variant	effect of a mutation on the interaction
A89V	with no effect

Variants of: B2
Conditions: with bmp7_human BMP7, P18075
Sequence of bmp7_human BMP7, P18075 (P18075 whole entry): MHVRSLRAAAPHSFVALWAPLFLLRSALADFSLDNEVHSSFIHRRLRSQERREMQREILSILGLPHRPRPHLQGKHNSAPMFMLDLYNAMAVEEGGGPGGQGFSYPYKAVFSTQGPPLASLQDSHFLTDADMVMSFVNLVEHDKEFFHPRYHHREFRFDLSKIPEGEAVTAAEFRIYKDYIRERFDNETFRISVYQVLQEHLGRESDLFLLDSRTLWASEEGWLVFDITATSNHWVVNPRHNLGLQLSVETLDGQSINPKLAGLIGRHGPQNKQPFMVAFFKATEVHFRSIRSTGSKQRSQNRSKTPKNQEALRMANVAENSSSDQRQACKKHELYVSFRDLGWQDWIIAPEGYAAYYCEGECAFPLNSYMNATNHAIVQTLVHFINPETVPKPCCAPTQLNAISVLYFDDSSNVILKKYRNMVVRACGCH

Variant	effect of a mutation on the interaction
A89V	with no effect

Variants of: B2
Conditions: with gtpba_human GTPBP10, A4D1E9
Sequence of gtpba_human GTPBP10, A4D1E9 (A4D1E9 whole entry): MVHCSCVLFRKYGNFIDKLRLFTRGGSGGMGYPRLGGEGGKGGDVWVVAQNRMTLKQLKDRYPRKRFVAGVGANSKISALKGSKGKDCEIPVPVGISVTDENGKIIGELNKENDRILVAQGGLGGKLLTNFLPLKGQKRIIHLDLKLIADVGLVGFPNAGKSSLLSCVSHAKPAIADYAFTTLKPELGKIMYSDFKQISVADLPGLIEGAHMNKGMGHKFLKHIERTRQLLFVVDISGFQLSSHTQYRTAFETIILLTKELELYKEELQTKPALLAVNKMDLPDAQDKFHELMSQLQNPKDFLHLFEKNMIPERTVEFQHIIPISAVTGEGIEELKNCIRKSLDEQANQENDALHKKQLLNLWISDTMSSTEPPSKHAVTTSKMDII

Variant	effect of a mutation on the interaction
A89V	with no effect

Variants of: B2
Conditions: with cdkl3_human CDKL3, Q8IVW4
Sequence of cdkl3_human CDKL3, Q8IVW4 (Q8IVW4 whole entry, looked up): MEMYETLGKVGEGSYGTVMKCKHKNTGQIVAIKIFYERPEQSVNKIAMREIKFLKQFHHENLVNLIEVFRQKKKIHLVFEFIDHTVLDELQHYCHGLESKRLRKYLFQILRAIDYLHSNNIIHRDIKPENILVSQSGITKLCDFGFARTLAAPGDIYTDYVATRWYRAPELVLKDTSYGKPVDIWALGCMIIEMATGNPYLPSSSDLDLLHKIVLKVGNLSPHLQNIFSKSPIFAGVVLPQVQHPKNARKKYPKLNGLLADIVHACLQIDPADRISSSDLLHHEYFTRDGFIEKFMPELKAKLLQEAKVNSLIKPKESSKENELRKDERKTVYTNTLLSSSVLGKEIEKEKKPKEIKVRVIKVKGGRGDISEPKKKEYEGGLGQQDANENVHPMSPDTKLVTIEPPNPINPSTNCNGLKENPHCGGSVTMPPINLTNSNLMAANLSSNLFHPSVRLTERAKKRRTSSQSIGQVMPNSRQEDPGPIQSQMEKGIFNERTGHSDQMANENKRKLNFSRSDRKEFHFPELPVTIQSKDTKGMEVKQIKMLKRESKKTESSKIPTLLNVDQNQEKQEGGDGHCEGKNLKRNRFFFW

Variant	effect of a mutation on the interaction
A89V	with no effect

Variants of: B2
Conditions: with cu058_human C21orf58, P58505
Sequence of cu058_human C21orf58, P58505 (P58505 whole entry): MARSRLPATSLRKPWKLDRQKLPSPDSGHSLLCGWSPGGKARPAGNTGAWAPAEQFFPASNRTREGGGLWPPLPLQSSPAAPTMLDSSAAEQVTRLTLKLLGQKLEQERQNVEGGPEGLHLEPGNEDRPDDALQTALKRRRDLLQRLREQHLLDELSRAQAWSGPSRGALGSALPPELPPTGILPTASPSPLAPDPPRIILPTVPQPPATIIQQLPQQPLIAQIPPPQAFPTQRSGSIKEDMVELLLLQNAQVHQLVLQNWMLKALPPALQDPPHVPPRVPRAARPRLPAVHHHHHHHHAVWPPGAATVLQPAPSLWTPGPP

Variant	effect of a mutation on the interaction
A89V	with no effect

Variants of: B2
Conditions: with zn426_human ZNF426, Q9BUY5
Sequence of zn426_human ZNF426, Q9BUY5 (Q9BUY5 whole entry): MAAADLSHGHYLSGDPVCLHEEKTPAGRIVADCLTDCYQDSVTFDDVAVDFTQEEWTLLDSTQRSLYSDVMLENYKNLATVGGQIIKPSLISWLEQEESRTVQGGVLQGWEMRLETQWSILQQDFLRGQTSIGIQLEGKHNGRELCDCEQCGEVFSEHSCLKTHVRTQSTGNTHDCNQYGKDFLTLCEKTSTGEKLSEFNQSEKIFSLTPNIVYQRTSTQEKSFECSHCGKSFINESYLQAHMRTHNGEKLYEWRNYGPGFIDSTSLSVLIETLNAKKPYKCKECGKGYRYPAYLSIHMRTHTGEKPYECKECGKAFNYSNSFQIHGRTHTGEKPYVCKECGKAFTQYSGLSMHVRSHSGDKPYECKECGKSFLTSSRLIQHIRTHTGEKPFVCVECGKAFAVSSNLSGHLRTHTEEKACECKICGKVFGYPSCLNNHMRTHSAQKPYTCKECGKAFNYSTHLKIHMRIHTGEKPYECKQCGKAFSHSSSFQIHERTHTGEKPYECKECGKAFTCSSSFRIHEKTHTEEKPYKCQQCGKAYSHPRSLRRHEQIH

Variant	effect of a mutation on the interaction
A89V	with no effect

Variants of: B2
Conditions: with snai1_human SNAI1, O95863
Sequence of snai1_human SNAI1, O95863 (O95863 whole entry): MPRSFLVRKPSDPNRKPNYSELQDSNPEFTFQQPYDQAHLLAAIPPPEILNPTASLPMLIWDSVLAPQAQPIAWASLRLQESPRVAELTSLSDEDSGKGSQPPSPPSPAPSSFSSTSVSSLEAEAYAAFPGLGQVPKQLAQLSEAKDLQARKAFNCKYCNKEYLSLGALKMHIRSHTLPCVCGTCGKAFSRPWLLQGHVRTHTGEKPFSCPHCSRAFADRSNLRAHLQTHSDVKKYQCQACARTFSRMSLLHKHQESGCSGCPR

Variant	effect of a mutation on the interaction
A89V	with no effect

Variants of: B2
Conditions: with zn329_human ZNF329, Q86UD4
Sequence of zn329_human ZNF329, Q86UD4 (Q86UD4 whole entry): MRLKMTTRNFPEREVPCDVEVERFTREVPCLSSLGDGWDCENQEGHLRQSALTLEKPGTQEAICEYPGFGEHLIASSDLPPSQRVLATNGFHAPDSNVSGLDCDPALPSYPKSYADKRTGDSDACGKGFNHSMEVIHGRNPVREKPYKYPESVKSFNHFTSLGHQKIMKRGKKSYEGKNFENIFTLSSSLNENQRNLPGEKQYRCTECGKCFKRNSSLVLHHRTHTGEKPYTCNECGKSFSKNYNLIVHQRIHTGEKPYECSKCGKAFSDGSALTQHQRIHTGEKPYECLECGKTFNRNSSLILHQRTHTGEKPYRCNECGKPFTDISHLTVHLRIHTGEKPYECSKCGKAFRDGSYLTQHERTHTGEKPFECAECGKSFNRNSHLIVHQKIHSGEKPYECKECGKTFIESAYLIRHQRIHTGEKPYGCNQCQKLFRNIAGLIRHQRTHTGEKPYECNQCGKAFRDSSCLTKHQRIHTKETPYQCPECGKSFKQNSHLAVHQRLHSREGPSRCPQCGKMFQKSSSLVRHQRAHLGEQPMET

Variant	effect of a mutation on the interaction
A89V	with no effect

Variants of: B3
Conditions: with zf64b_human ZFP64, Q9NTW7

Variant	effect of a mutation on the interaction
N95K	with no effect
A37S	with no effect

Variants of: B4
Conditions: with trim1_human MID2, Q9UJV3

Variant	effect of a mutation on the interaction
M123T	disrupting interaction strength

Variants of: B4
Conditions: with ikzf3_human IKZF3, Q9UKT9
Sequence of ikzf3_human IKZF3, Q9UKT9 (Q9UKT9 whole entry): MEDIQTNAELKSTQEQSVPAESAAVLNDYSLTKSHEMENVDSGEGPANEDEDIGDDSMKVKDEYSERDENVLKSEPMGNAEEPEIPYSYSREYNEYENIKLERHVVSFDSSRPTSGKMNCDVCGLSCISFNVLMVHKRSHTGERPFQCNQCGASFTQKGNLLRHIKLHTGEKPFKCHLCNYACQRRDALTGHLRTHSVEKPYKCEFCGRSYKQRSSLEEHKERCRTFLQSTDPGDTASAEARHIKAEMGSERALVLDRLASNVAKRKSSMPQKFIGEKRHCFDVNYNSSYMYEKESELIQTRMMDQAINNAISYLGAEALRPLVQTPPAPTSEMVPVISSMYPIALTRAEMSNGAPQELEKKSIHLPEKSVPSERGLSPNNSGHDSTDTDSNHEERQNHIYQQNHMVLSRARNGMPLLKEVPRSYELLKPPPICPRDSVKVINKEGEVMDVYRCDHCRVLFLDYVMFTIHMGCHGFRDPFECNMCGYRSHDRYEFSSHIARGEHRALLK

Variant	effect of a mutation on the interaction
M123T	disrupting interaction strength

Variants of: B4
Conditions: with itf2_human TCF4, P15884

Variant	effect of a mutation on the interaction
M123T	disrupting interaction strength

Variants of: B4
Conditions: with gfap_human GFAP

Variant	effect of a mutation on the interaction
M123T	disrupting interaction strength

Variants of: B5
Conditions: with md2bp_human MAD2L1BP

Variant	effect of a mutation on the interaction
G409E	with no effect
